Laboratory results from patent US6713057B1, “Compositions and methods for modulating serum cholesterol” (The Johns Hopkins University, priority 1999, dated 2004).

Tested on: SREBP-1
Test: SREBP-1 proteolysis (maturation) assay, Western immunoblot of nuclear fractions, HH-25 hepatocytes
Type: cell-based, human
Details: HH-25 hepatocytes, sterol independent
Method: FIGS. 2A-2C illustrate effects of TNF-α sphingomyelinase and C2-ceramide on the kinetics of SREBP-1 maturation—FIGS. 2A-2C is explained in more detail as follows: Cells were maintained in media supplemented with 1 μg/ml 25-hydroxy cholesterol and 15 μg/ml cholesterol for 24 hours before the experiment. The cells were treated for the indicated time as described in materials and methods. The cells were then harvested in PBS, pelleted and frozen. Lysis and nuclear fractionation were performed as described. Nuclear fractions (50 μg of protein) were electrophoresed on a 7.5% polyacrylamide gel and transferred to a PVDF membrane. Western blotting was performed as described. Band intensity was quantified via densitometry. Error bars represent ±one standard deviation from the mean. 2A) The kinetics of SREBP maturation as measured by the increase in mature SREBP-1 are plotted. Fold increase was calculated by comparing each time point to the corresponding control value (TNF-α is represented by stippled bars, bacterial sphingomyelinase is represented by light gray bars and C2-ceramide by the dark bars.) 2B) Cells were treated with TNF-α (10 ng/ml) and prepared as described above. The bands corresponding to the precursor and mature forms of SREBP-1 were quantified and their ratio plotted. 2C) Representative Western blots from which numerical data was derived. […]

B1: EGF: human recombinant EGF from Upstate Biotechnology (protein, UniProt P01133 23-1207, looked up)
Pro-epidermal growth factor: PQHWSCPEGTLAGNGNSTCVGPAPFLIFSHGNSIFRIDTEGTNYEQLVVDAGVSVIMDFHYNEKRIYWVDLERQLLQRVFLNGSRQERVCNIEKNVSGMAINWINEEVIWSNQQEGIITVTDMKGNNSHILLSALKYPANVAVDPVERFIFWSSEVAGSLYRADLDGVGVKALLETSEKITAVSLDVLDKRLFWIQYNREGSNSLICSCDYDGGSVHISKHPTQHNLFAMSLFGDRIFYSTWKMKTIWIANKHTGKDMVRINLHSSFVPLGELKVVHPLAQPKAEDDTWEPEQKLCKLRKGNCSSTVCGQDLQSHLCMCAEGYALSRDRKYCEDVNECAFWNHGCTLGCKNTPGSYYCTCPVGFVLLPDGKRCHQLVSCPRNVSECSHDCVLTSEGPLCFCPEGSVLERDGKTCSGCSSPDNGGCSQLCVPLSPVSWECDCFPGYDLQLDEKSCAASGPQPFLLFANSQDIRHMHFDGTDYGTLLSQQMGMVYALDHDPVENKIYFAHTALKWIERANMDGSQRERLIEEGVDVPEGLAVDWIGRRFYWTDRGKSLIGRSDLNGKRSKIITKENISQPRGIAVHPMAKRLFWTDTGINPRIESSSLQGLGRLVIASSDLIWPSGITIDFLTDKLYWCDAKQSVIEMANLDGSKRRRLTQNDVGHPFAVAVFEDYVWFSDWAMPSVMRVNKRTGKDRVRLQGSMLKPSSLVVVHPLAKPGADPCLYQNGGCEHICKKRLGTAWCSCREGFMKASDGKTCLALDGHQLLAGGEVDLKNQVTPLDILSKTRVSEDNITESQHMLVAEIMVSDQDDCAPVGCSMYARCISEGEDATCQCLKGFAGDGKLCSDIDECEMGVPVCPPASSKCINTEGGYVCRCSEGYQGDGIHCLDIDECQLGEHSCGENASCTNTEGGYTCMCAGRLSEPGLICPDSTPPPHLREDDHHYSVRNSDSECPLSHDGYCLHDGVCMYIEALDKYACNCVVGYIGERCQYRDLKWWELRHAGHGQQQKVIVVAVCVVVLVMLLLLSLWGAHYYRTQKLLSKNPKNPYEESSRDVRSRRPADTEDGMSSCPQPWFVVIKEHQDLKNGGQPVAGEDGQAADGSMQPTSWRQEPQLCGMGTEQGCWIPVSSDKGSCPQVMERSFHMPSYGTQTLEGGVEKPHSLLSANPLWQQRALDPPHQMELTQ
modifications: Pro-epidermal growth factor
notes: human recombinant EGF from Upstate Biotechnology
- induction of SREBP-1 maturation (increase in mature SREBP-1), in words: could not be recapitulated
